Measurements reported in publication PMC10045489 (Bioengineering, 2023).

Molecular target: T1, receptor-binding domain of the SARS-CoV-2 spike protein fused to the maltose-binding protein (SARS-CoV-2, wild-type (Wuhan-Hu-1 …, UniProt P0DTC2))
T1 construct: also called MBP-RBD; RBD-MBP
Assay: BLI
Conditions: both partners purified

B1: VHH72 nanobody (VHH)
VHH: QVQLQESGGGLVQAGGSLRLSCAASGRTFSEYAMGWFRQAPGKEREFVATISWSGGSTYYTDSVKGRFTISRDNAKNTVYLQMNSLKPDDTAVYYCAAAGLGTVVSEWDYDYDYWGQGTQVTVSS
notes: not shown: ecotin, N-terminal, cleaved; His-tag, N-terminal, cleaved
  binding result: binds
